Assay [1] deals with T1, recombinant human TGFβ1 (human, UniProt P01137 279-390).
T1 construct: mature; also called TGFbeta1
Nature of the assay: BIACore, method of Karlsson et al.

Assay [2] addresses T1, recombinant human TGFβ1. Nature of the assay: radioreceptor assay, inhibition of 125I-TGFβ1 binding to A549 cells; concentration of antibody combining sites. The protocol:
(§1) Cells are seeded at 1-2×10^5 cells/ml/well into the wells of 24-well cluster plates and grown for 24 h in serum-free DMEM. Cell monlayers are washed twice with serum-free DMEM and 0.5 ml binding medium (DMEM/Hams F12 (Sigma D-6421) containing 0.1% (v/v) BSA added to each well.
(§2) Aliqouts of ¹²⁵I-TGFβ1 or TGFβ2 (70-90 TBq/mmol; Amersham International) at 20 pM are preincubated with antibody in binding medium at room temperature for 1 h. Duplicate samples of 0.5 ml of TGFβ/antibody mixtures are then added to the cell monlayers and are incubated at 37° C. for 1-2 h. Control wells contain TGFβ only. Unbound TGFβ is removed by washing 4 times with Hank's balanced salt solution containing 0.1% BSA. Cells are solubilised in 0.8 ml 25 mM Tris HCl pH 7.5, 10% glycerol, 1% Triton X-100 at room temperature for 20 min. The contents of each well are removed and ¹²⁵I measured in a gamma counter.

Assay [3] deals with lysozyme (coated onto a BIACore sensor chip) (Gallus gallus (Chicken), UniProt P00698 19-147). The assay can be described thus: BIACore, lysozyme coated on the sensor chip.
Assay [4] addresses T2, recombinant human TGFβ2 (human, UniProt P61812 303-414).
T2 construct: mature; also called TGFbeta2; rhTGFβ2
T2 sequence (looked up): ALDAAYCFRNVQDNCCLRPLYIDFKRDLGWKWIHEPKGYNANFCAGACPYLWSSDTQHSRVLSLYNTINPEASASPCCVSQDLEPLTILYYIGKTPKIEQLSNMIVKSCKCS
Nature of the assay: BIACore, antigen on the chip.

Assay [5] addresses T2, recombinant human TGFβ2. The assay can be described thus: BIACore, method of Karlsson et al. A general note: SPR reads the build-up and loss of mass on a sensor chip optically.
Assay [6] deals with T2, recombinant human TGFβ2. Nature of the assay: radioreceptor assay, inhibition of 125I-TGFβ2 binding to A549 cells; concentration of antibody combining sites. As to the method:
as §1, §2

In assay [7] the target is T2, recombinant human TGFβ2. Nature of the assay: cell-based or functional assay.
Assay [8] has as its target T3, TGFβ3 (UniProt P10600 301-412).
T3 sequence (looked up): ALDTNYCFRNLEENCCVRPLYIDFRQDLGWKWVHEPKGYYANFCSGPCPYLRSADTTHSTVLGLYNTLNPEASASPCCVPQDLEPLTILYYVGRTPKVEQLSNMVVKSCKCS
The assay can be described thus: cell-based or functional assay.

The target of assay [9] is T2, recombinant human TGFβ2. Nature of the assay: cell-based or functional assay. The source holds these as a separate data set.
Assay [10] deals with T3, TGFβ3. The assay can be described thus: BIACore, antigen coated on the sensor chip.
Assay [11] has as its target T1, recombinant human TGFβ1. Nature of the assay: BIACore, antigen coated on the sensor chip.
Another assay has as its target T4, bovine serum albumin (bovine, UniProt P02769 25-607).
T4 construct: also called BSA
The assay can be described thus: ELISA, antigen coated at 10 µg/ml, anti-human Fc alkaline phosphatase conjugate, OD405 nm [b]. The protocol: (§3) For both FIG. 13(a) and FIG. 13(b), antigens 1 to 15 were used for coating the plate at a concentration of 10 μg/ml in PBS. The TGFbetas were coated at 0.2 μg/ml in PBS. Coating was performed at 4° C. overnight. […] of each antigen was used per well and duplicates of each antigen for each IgG to be tested. IgG samples were incubated with the coated antigens at 37° C. for 2 hours after blocking with 2%. marvel-PBS. The labelled second antibody was a mouse anti-human Fc1 alkaline phosphatase conjugated and the substrate used to detect bound second antibody was PNPP at 1 mg/ml with the absorbance read at 405 nm.
For orientation: In an ELISA, binding on a coated surface is turned into a signal by an enzyme label.

Another assay addresses T5, ovalbumin (UniProt P01012 2-386).
T5 sequence (looked up): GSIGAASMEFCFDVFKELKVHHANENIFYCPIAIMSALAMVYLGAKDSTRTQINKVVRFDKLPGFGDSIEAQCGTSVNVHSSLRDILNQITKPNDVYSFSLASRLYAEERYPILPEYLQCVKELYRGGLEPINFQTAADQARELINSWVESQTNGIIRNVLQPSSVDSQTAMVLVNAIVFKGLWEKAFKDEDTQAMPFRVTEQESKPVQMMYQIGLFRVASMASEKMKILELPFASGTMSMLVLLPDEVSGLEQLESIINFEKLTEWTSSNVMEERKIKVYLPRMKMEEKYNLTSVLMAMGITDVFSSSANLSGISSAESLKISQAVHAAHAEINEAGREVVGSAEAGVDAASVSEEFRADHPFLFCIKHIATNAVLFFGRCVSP
The assay is described as above. The protocol: as §3

Another assay addresses human serum albumin (human, UniProt P02768 25-609). The assay is described as above. The protocol: as §3
Assay [12] concerns the target T6, chicken egg white trypsin inhibitor (chicken, UniProt P01005 25-210).
T6 sequence (looked up): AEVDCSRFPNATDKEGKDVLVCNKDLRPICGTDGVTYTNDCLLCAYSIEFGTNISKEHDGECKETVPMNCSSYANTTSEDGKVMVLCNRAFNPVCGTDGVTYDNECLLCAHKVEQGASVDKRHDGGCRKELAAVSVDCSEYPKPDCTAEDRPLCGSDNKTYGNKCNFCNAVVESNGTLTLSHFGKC
The assay is described as above. As to the method:
as §3

The target of a further assay is hen egg lysozyme (hen, UniProt P00698 19-147). The assay is described as above. The protocol: as §3
Assay [13] has as its target oxazolone-bovine serum albumin (bovine, UniProt P02769 25-607, oxazolone hapten coupled, sites not stated). The assay is described as above. The protocol: as §3
For another assay, the target named is human insulin (human, UniProt P01308 25-54; P01308 90-110, limits assumed). Described as above. The protocol: as §3
The target in a further assay is T7, human lymphotoxin (TNFβ) (human, UniProt P01374 35-205, limits assumed).
T7 sequence (looked up): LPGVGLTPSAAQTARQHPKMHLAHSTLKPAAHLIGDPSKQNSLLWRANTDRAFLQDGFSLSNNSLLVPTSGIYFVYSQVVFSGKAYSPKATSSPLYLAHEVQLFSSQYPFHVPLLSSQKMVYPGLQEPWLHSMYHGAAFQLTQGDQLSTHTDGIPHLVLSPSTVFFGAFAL
The description is as above. As to the method:
as §3

Assay [14] concerns the target T1, recombinant human TGFβ1. The assay can be described thus: specificity ELISA, TGFβ coated at 0.2 µg/ml. As to the method: Clones identified as binding TGFβ-1 rather an uncoated well, as described above, were further analysed for fine specificity. […] Microtitre plate wells were coated with 50 μl of either 0.2 μg/ml TGFβ1, 0.2 μg/ml TGFβ-2, 10 μg/ml bovine serum albumin (BSA) or PBS (the uncoated well). After preblocking both the phage (or soluble scFv) and the microtitre plates, 50 μl blocked phage (or soluble scFv) from each clone was added to a well coated with either TGFβ-1, TGFβ-2, BSA or an uncoated well. As above, alkaline phosphatse activity was visualised using either the chromagenic substrate pNPP (Sigma) or the Ampak system (Dako). […]

The text below walks through data of patent US20050049403A1 (CAMBRIDGE ANTIBODY TECHNOLOGY, published 2005).

T1 sequence (P01137 279-390 limits assumed): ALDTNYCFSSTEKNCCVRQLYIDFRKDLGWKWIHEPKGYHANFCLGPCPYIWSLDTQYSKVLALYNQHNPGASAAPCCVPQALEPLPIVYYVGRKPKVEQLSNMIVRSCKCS
Chain of human insulin (P01308 25-54 limits assumed, chain 1 of 2): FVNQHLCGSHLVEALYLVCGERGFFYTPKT
Chain of human insulin (P01308 90-110 limits assumed, chain 2 of 2): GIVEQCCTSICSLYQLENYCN
Chain of human serum albumin (P02768 25-609 limits assumed): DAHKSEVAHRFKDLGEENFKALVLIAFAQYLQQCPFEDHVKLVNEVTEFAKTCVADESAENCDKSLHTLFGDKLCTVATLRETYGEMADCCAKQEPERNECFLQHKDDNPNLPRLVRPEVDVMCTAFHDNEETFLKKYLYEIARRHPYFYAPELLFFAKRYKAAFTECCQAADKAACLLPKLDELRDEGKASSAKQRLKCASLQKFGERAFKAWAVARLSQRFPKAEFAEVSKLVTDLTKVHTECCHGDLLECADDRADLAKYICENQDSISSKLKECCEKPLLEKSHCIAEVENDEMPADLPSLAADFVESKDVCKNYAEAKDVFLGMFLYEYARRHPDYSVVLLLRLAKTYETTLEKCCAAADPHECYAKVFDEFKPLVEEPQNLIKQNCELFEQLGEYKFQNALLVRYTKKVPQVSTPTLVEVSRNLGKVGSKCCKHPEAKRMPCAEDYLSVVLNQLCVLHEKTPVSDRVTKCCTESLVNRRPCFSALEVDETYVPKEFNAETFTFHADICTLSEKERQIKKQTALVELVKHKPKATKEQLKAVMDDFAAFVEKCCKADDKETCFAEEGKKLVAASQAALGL
T4 sequence (P02769 25-607 limits assumed): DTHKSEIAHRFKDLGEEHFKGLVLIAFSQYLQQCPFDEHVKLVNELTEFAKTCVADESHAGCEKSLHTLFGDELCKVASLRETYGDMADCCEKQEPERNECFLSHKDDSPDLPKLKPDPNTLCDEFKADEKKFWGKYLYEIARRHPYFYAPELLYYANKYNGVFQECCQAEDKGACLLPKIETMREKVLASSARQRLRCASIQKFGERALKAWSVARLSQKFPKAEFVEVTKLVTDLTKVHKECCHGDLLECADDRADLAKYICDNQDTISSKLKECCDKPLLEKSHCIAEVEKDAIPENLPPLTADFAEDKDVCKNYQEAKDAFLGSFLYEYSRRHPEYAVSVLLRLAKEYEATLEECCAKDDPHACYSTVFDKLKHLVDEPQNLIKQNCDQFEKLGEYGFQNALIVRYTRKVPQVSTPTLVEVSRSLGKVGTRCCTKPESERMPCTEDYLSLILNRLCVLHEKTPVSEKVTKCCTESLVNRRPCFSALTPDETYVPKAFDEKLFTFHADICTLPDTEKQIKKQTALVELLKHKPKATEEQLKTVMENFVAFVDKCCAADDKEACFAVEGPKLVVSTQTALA
Chain of oxazolone-bovine serum albumin (P02769 25-607 limits assumed): as above
Chain of hen egg lysozyme (P00698 19-147): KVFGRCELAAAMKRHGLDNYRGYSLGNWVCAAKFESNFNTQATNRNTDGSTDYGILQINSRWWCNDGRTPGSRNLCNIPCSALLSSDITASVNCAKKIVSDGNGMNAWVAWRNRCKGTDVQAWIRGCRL
Chain of lysozyme (coated onto a BIACore sensor chip) (P00698 19-147 limits assumed): as the sequence (P00698 19-147) above

B1: 27C1/10A6 IgG4 (antibody, V domains shown)
VH: QVQLVESGGGVVQPGRSLRLSCAASGLTFSSYDMHWVRQPPAKGLEWVAVISYDGSSKYYADSVKGRFTISRDNSKNTLYLQMNSLRAEDTAVYYCARTGEYSGYDTSGVELWGQGTTVTVSS
VL: HVILTQDPAVSVALGQTVRITCQGDSLKSYYASWYQQKPGQAPVLVIYGENSRPSGIPDRFSGSSSGNTASLTITGAQAEDEADYYCNSRDSSGTHLEVFGGGTKLTVLG
notes: Whole antibody: human gamma 4 constant region (pG4D100) and human lambda constant region (pLN10), made in CHO cells
Broadly, the Kd is a measure of binding affinity in units of concentration. The term IC50 denotes the midpoint of a concentration-inhibition curve. With B1, the Kd with recombinant human TGFβ1 [1] is around 5 nM. Besides, the 50% inhibitory concentration (IC50) with recombinant human TGFβ1 [2] is 9 nM. For the same molecule, the binding result in [3] is recorded as “no binding”. The “fold higher dissociation constant compared to TGFβ1” value in the assay with recombinant human TGFβ2 [4] is at least 10 fold.

B2: 6H1 IgG4 (antibody, V domains shown)
VH: EVQLVESGGGVVQPGRSLRLSCAASGFTFSSYGMHWVRQAPGKGLEWVAVIWYDGSNKYYADSVKGRFTISRDNSKNTLYLQMDSLRAEDTAVYYCGRTLESSLWGQGTLVTVSS
VL: DVVMTQSPSSLSASVGDRVTITCRASQGISNYLAWYQQKPGKAPKLLIYKASTLESGVPSRFSGSGSGTEFTLTISSLQPEDFATYYCQQSYSTPRTFGQGTKVDIKR
notes: Whole antibody: human gamma 4 and human kappa constant regions (pG4D100, pKN100), CHO cells
As to B2, in the assay with recombinant human TGFβ2 [5], the Kd was around 2 nM. Also, in the assay with recombinant human TGFβ2 [6], the concentration for half-maximal inhibition (IC50) is around 10 nM. Besides, the “I.C.50 in TF1 assay (neutralisation of TGFβ2 inhibition of TF1 cell proliferation)” value with recombinant human TGFβ2 [7] is 100 nM. Moreover, the “IC50 in TF1 cell proliferation assay, 100 pM TGFβ isoform” value in the assay with TGFβ3 [8] was around 20 nM; in the assay with recombinant human TGFβ2 [9], 12 nM. Besides, in the assay with recombinant human TGFβ2 [9], the “IC50 in TF1 neutralisation assay, 6H1 IgG4 from a CHO cell line” value was 15 nM. The binding result with TGFβ3 [10] and in the assay with recombinant human TGFβ1 [11] was “no binding” throughout.

B3: 6A5 IgG4 (antibody, V domains shown)
VH: B2 VH
VL: SSELTQDPAVSVALGQTVRITCQGDSLRSYYASWYQQKPGQAPVLVIYGKNNRPSGIPDRFAGSNSGNTASLTITGAQAEDEADYYCSSRDSSGNHVVFGGGTKLTVLG
notes: Whole antibody: human gamma 4 and human lambda constant regions (pG4D100, pLN10), CHO cells
In the case of B3, the binding result (in the assay with bovine serum albumin; in the assay with ovalbumin; in the assay with human serum albumin; in assay [12]; with hen egg lysozyme; in [13]) was “no binding” in each case. Besides, the binding result with human insulin and with human lymphotoxin (TNFβ) was “no binding” each time. For the same molecule, the IC50 with recombinant human TGFβ2 [6] was around 6 nM. Further, the “I.C.50 in TF1 assay (neutralisation of TGFβ2 inhibition of TF1 cell proliferation)” value with recombinant human TGFβ2 [7] was 150 nM.

B4: 10A6 scFv (scFv)
scFv: QVQLVESGGGVVQPGRSLRLSCAASGFTFSSYGMHWVRQAPGKGLEWVAVISYDGSNKYYADSVKGRFTISRDNSKNTLYLQMNSLRAEDTAVYYCAKTGEYSGYDSSGVDVWGKGTTVTVSSGGGGSGGGGSGGGGSHVILTQDPAVSVALGQTVRITCQGDSLKSYYASWYQQKPGQAPVLVIYGENSRPSGIPDRFSGSSSGNTASLTITGAQAEDEADYYCNSRDSSGTHLEVFGGGTKLTVLG
notes: Light chain shuffle of 1-B2
Consider B4, for which the “ELISA signal, fold over the signal on TGFβ2 and TGFβ3” value with recombinant human TGFβ1 [14] is at least 5 fold.
